± gives the uncertainty stated by the source.

The data set has as its system HEK293T. Nature of the data set: plasma membrane surface immunostaining intensity (anti-HA, deep receptor scanning) (arbitrary fluorescence units); higher = higher plasma membrane expression.

As to “MEAGNQTGFLEFILLGLSEDPELQPFIFGLFLSMYLVTVLGNLLIILAISSDSHLHTPMYFFLSNLSWVDICFSTCIVPKMLVNIQTENKAISYMDCLTQVYFSMFFPILDTLLLTVMAYDRFVAVCHPLHYMIIMNPHLCGLLVFVTWLIGVMTSLLHISLMMHLIFCKDFEIPHFFCELTYILQLACSDTFLNSTLIYFMTGVLGVFPLLGIIFSYSRIASSIRKMSSSGGKQKALSTCGSHLSVVSLFYGTGIGVHFTSAVTHSSQKISVASVMYTVVTPMLNPFIYSLRNKDVKGALGSLLSRAASCL [OR7D2]”, the “plasma membrane surface immunostaining intensity” value (GPCR class: A (Olfactory)) was determined as 118 ± 23. As to “MSNITDPQMWDFDDLNFTGMPPADEDYSPCMLETETLNKYVVIIAYALVFLLSLLGNSLVMLVILYSRVGRSVTDVYLLNLALADLLFALTLPIWAASKVNGWIFGTFLCKVVSLLKEVNFYSGILLLACISVDRYLAIVHATRTLTQKRHLVKFVCLGCWGLSMNLSLPFFLFRQAYHPNNSSPVCYEVLGNDTAKWRMVLRILPHTFGFIVPLFVMLFCYGFTLRTLFKAHMGQKHRAMRVIFAVVLIFLLCWLPYNLVLLADTLMRTQVIQESCERRNNIGRALDATEILGFLHSCLNPIIYAFIGQNFRHGFLKILAMHGLVSKEFLARHRVTSYTSSSVNVSSNL [CXCR1]”, the “plasma membrane surface immunostaining intensity” value (GPCR class: A) came out at 5900 ± 170.

Take “MDPTTPAWGTESTTVNGNDQALLLLCGKETLIPVFLILFIALVGLVGNGFVLWLLGFRMRRNAFSVYVLSLAGADFLFLCFQIINCLVYLSNFFCSISINFPSFFTTVMTCAYLAGLSMLSTVSTERCLSVLWPIWYRCRRPRHLSAVVCVLLWALSLLLSILEGKFCGFLFSDGDSGWCQTFDFITAAWLIFLFMVLCGSSLALLVRILCGSRGLPLTRLYLTILLTVLVFLLCGLPFGIQWFLILWIWKDSDVLFCHIHPVSVVLSSLNSSANPIIYFFVGSFRKQWRLQQPILKLALQRALQDIAEVDHSEGCFRQGTPEMSRSSLV [MRGPRX2]”: the “plasma membrane surface immunostaining intensity” value (GPCR class: A) turned out to be 359 ± 8.2.

As to “MQGLNHTSVSEFILVGFSAFPHLQLMLFLLFLLMYLFTLLGNLLIMATVWSERSLHMPMYLFLCALSITEILYTVAIIPRMLADLLSTQRSIAFLACASQMFFSFSFGFTHSFLLTVMGYDRYVAICHPLRYNVLMSLRGCTCRVGCSWAGGLVMGMVVTSAIFHLAFCGHKEIHHFFCHVPPLLKLACGDDVLVVAKGVGLVCITALLGCFLLILLSYAFIVAAILKIPSAEGRNKAFSTCASHLTVVVVHYGFASVIYLKPKGPQSPEGDTLMGITYTVLTPFLSPIIFSLRNKELKVAMKKTCFTKLFPQNC [OR10H5]”, the “plasma membrane surface immunostaining intensity” value (GPCR class: A (Olfactory)) is 129 ± 21.

With “MAWENQTFNSDFLLLGIFNHSPTHTFLFFLVLAIFSVAFMGNSIMVLLIYLDTQLHTPMYFLLSQLSLMDLMLICTTVPKMAFNYLSGSKSISMAGCATQIFFYISLLGSECFLLAVMSYDRYTAICHPLRYTNLMRPKICGLMTAFSWILGSTDGIIDAVATFSFSYCGSREIAHFCCDFPSLLILSCNDTSIFEEVIFICCIVMLVFPVAIIITSYARVILAVIHMGSGEGRRKAFTTCSSHLMVVGMYYGAGLFMCIQPTSHHSPMQDKMVSVFYTIVTPMLNPLIYSLRNKEVTRALMKILGKGKSGD [OR2M7]”, the “plasma membrane surface immunostaining intensity” value (GPCR class: A (Olfactory)) was found to be 157 ± 44. With “MDLELDEYYNKTLATENNTAATRNSDFPVWDDYKSSVDDLQYFLIGLYTFVSLLGFMGNLLILMALMKKRNQKTTVNFLIGNLAFSDILVVLFCSPFTLTSVLLDQWMFGKVMCHIMPFLQCVSVLVSTLILISIAIVRYHMIKHPISNNLTANHGYFLIATVWTLGFAICSPLPVFHSLVELQETFGSALLSSRYLCVESWPSDSYRIAFTISLLLVQYILPLVCLTVSHTSVCRSISCGLSNKENRLEENEMINLTLHPSKKSGPQVKLSGSHKWSYSFIKKHRRRYSKKTACVLPAPERPSQENHSRILPENFGSVRSQLSSSSKFIPGVPTCFEIKPEENSDVHELRVKRSVTRIKKRSRSVFYRLTILILVFAVSWMPLHLFHVVTDFNDNLISNRHFKLVYCICHLLGMMSCCLNPILYGFLNNGIKADLVSLIHCLHM [NPY5R]”, the “plasma membrane surface immunostaining intensity” value (GPCR class: A) came to 269 ± 26. As for “MEKLLRLCCWYSWLLLFYYNFQVRGVYSRSQDHPGFQVLASASHYWPLENVDGIHELQDTTGDIVEGKVNKGIYLKEEKGVTLLYYGRYNSSCISKPEQCGPEGVTFSFFWKTQGEQSRPIPSAYGGQVISNGFKVCSSGGRGSVELYTRDNSMTWEASFSPPGPYWTHVLFTWKSKEGLKVYVNGTLSTSDPSGKVSRDYGESNVNLVIGSEQDQAKCYENGAFDEFIIWERALTPDEIAMYFTAAIGKHALLSSTLPSLFMTSTASPVMPTDAYHPIITNLTEERKTFQSPGVILSYLQNVSLSLPSKSLSEQTALNLTKTFLKAVGEILLLPGWIALSEDSAVVLSLIDTIDTVMGHVSSNLHGSTPQVTVEGSSAMAEFSVAKILPKTVNSSHYRFPAHGQSFIQIPHEAFHRHAWSTVVGLLYHSMHYYLNNIWPAHTKIAEAMHHQDCLLFATSHLISLEVSPPPTLSQNLSGSPLITVHLKHRLTRKQHSEATNSSNRVFVYCAFLDFSSGEGVWSNHGCALTRGNLTYSVCRCTHLTNFAILMQVVPLELARGHQVALSSISYVGCSLSVLCLVATLVTFAVLSSVSTIRNQRYHIHANLSFAVLVAQVLLLISFRLEPGTTPCQVMAVLLHYFFLSAFAWMLVEGLHLYSMVIKVFGSEDSKHRYYYGMGWGFPLLICIISLSFAMDSYGTSNNCWLSLASGAIWAFVAPALFVIVVNIGILIAVTRVISQISADNYKIHGDPSAFKLTAKAVAVLLPILGTSWVFGVLAVNGCAVVFQYMFATLNSLQGLFIFLFHCLLNSEVRAAFKHKTKVWSLTSSSARTSNAKPFHSDLMNGTRPGMASTKLSPWDKSSHSAHRVDLSAV [ADGRD1]”, where the note is “GPCR class: B”, the “plasma membrane surface immunostaining intensity” value came out at 1550 ± 390. For the sequence “MGTDNQTWVSEFILLGLSSDWDTRVSLFVLFLVMYVVTVLGNCLIVLLIRLDSRLHTPMYFFLTNLSLVDVSYATSVVPQLLAHFLAEHKAIPFQSCAAQLFFSLALGGIEFVLLAVMAYDRYVAVCDALRYSAIMHGGLCARLAITSWVSGFISSPVQTAITFQLPMCRNKFIDHISCELLAVVRLACVDTSSNEVTIMVSSIVLLMTPFCLVLLSYIQIISTILKIQSREGRKKAFHTCASHLTVVALCYGVAIFTYIQPHSSPSVLQEKLFSVFYAILTPMLNPMIYSLRNKEVKGAWQKLLWKFSGLTSKLAT [OR2F1]”, under “GPCR class: A (Olfactory)”, the “plasma membrane surface immunostaining intensity” value was 181 ± 74. With “MSNATLLTAFILTGLPHAPGLDAPLFGIFLVVYVLTVLGNLLILLVIRVDSHLHTPMYYFLTNLSFIDMWFSTVTVPKMLMTLVSPSGRTISFHSCVAQLYFFHFLGSTECFLYTVMSYDRYLAISYPLRYTNMMTGRSCALLATGTWLSGSLHSAVQTILTFHLPYCGPNQIQHYFCDAPPILKLACADTSANEMVIFVNIGLVASGCFVLIVLSYVSIVCSILRIRTSEGRHRAFQTCASHCIVVLCFFGPGLFIYLRPGSRDALHGVVAVFYTTLTPLFNPVVYTLRNKEVKKALLKLKNGSVFAQGE [OR10G7]”, the “plasma membrane surface immunostaining intensity” value (GPCR class: A (Olfactory)) is 315 ± 110. For the sequence “MAQQWSLQRLAGRHPQDSYEDSTQSSIFTYTNSNSTRGPFEGPNYHIAPRWVYHLTSVWMIFVVIASVFTNGLVLAATMKFKKLRHPLNWILVNLAVADLAETVIASTISVVNQVYGYFVLGHPMCVLEGYTVSLCGITGLWSLAIISWERWMVVCKPFGNVRFDAKLAIVGIAFSWIWAAVWTAPPIFGWSRYWPHGLKTSCGPDVFSGSSYPGVQSYMIVLMVTCCITPLSIIVLCYLQVWLAIRAVAKQQKESESTQKAEKEVTRMVVVMVLAFCFCWGPYAFFACFAAANPGYPFHPLMAALPAFFAKSATIYNPVIYVFMNRQFRNCILQLFGKKVDDGSELSSASKTEVSSVSSVSPA [OPN1MW3]”, the “plasma membrane surface immunostaining intensity” value (GPCR class: A) amounted to 288 ± 18. For the sequence “MGDNITSITEFLLLGFPVGPRIQMLLFGLFSLFYVFTLLGNGTILGLISLDSRLHAPMYFFLSHLAVVDIAYACNTVPRMLVNLLHPAKPISFAGRMMQTFLFSTFAVTECLLLVVMSYDLYVAICHPLRYLAIMTWRVCITLAVTSWTTGVLLSLIHLVLLLPLPFCRPQKIYHFFCEILAVLKLACADTHINENMVLAGAISGLVGPLSTIVVSYMCILCAILQIQSREVQRKAFCTCFSHLCVIGLFYGTAIIMYVGPRYGNPKEQKKYLLLFHSLFNPMLNPLICSLRNSEVKNTLKRVLGVERAL [OR2A7]”, under “GPCR class: A (Olfactory)”, the “plasma membrane surface immunostaining intensity” value worked out at 117 ± 27.

On to “MPPSISAFQAAYIGIEVLIALVSVPGNVLVIWAVKVNQALRDATFCFIVSLAVADVAVGALVIPLAILINIGPQTYFHTCLMVACPVLILTQSSILALLAIAVDRYLRVKIPLRYKMVVTPRRAAVAIAGCWILSFVVGLTPMFGWNNLSAVERAWAANGSMGEPVIKCEFEKVISMEYMVYFNFFVWVLPPLLLMVLIYLEVFYLIRKQLNKKVSASSGDPQKYYGKELKIAKSLALILFLFALSWLPLHILNCITLFCPSCHKPSILTYIAIFLTHGNSAMNPIVYAFRIQKFRVTFLKIWNDHFRCQPAPPIDEDLPEERPDD [ADORA1]”, for which the “plasma membrane surface immunostaining intensity” value (GPCR class: A) was found to be 6412 ± 62.

For the sequence “MELLKLNRSVQGTGPGPGASLCRPGAPLLNSSSVGNLSCEPPRIRGAGTRELELAIRITLYAVIFLMSVGGNMLIIVVLGLSRRLRTVTNAFLLSLAVSDLLLAVACMPFTLLPNLMGTFIFGTVICKAVSYLMGVSVSVSTLSLVAIALERYSAICRPLQARVWQTRSHAARVIVATWLLSGLLMVPYPVYTVVQPVGPRVLQCVHRWPSARVRQTWSVLLLLLLFFIPGVVMAVAYGLISRELYLGLRFDGDSDSDSQSRVRNQGGLPGAVHQNGRCRPETGAVGEDSDGCYVQLPRSRPALELTALTAPGPGSGSRPTQAKLLAKKRVVRMLLVIVVLFFLCWLPVYSANTWRAFDGPGAHRALSGAPISFIHLLSYASACVNPLVYCFMHRRFRQACLETCARCCPRPPRARPRALPDEDPPTPSIASLSRLSYTTISTLGPG [CCKBR]”, the “plasma membrane surface immunostaining intensity” value (GPCR class: A) amounted to 2920 ± 830.

In the case of “MAGNNFTEVTVFILSGFANHPELQVSLFLMFLFIYLFTVLGNLGLITLIRMDSQLHTPMYFFLSNLAFIDIFYSSTVTPKALVNFQSNRRSISFVGCFVQMYFFVGLVCCECFLLGSMAYNRYIAICNPLLYSVVMSQKVSNWLGVMPYVIGFTSSLISVWVISSLAFCDSSINHFFCDTTALLALSCVDTFGTEMVSFVLAGFTLLSSLLIITVTYIIIISAILRIQSAAGRQKAFSTCASHLMAVTIFYGSLIFTYLQPDNTSSLTQAQVASVFYTIVIPMLNPLIYSLRNKDVKNALLRVIHRKLFP [OR8I2]”, the “plasma membrane surface immunostaining intensity” value (GPCR class: A (Olfactory)) stood at 189 ± 85. Consider “MKLGSSRAGPGRGSAGLLPGVHELPMGIPAPWGTSPLSFHRKCSLWAPGRPFLTLVLLVSIKQVTGSLLEETTRKWAQYKQACLRDLLKEPSGIFCNGTFDQYVCWPHSSPGNVSVPCPSYLPWWSEESSGRAYRHCLAQGTWQTIENATDIWQDDSECSENHSFKQNVDRYALLSTLQLMYTVGYSFSLISLFLALTLLLFLRKLHCTRNYIHMNLFASFILRTLAVLVKDVVFYNSYSKRPDNENGWMSYLSEMSTSCRSVQVLLHYFVGANYLWLLVEGLYLHTLLEPTVLPERRLWPRYLLLGWAFPVLFVVPWGFARAHLENTGCWTTNGNKKIWWIIRGPMMLCVTVNFFIFLKILKLLISKLKAHQMCFRDYKYRLAKSTLVLIPLLGVHEILFSFITDDQVEGFAKLIRLFIQLTLSSFHGFLVALQYGFANGEVKAELRKYWVRFLLARHSGCRACVLGKDFRFLGKCPKKLSEGDGAEKLRKLQPSLNSGRLLHLAMRGLGELGAQPQQDHARWPRGSSLSECSEGDVTMANTMEEILEESEI [GLP2R]”, for which the “plasma membrane surface immunostaining intensity” value (GPCR class: B) is 121 ± 21.

The record behind these values is the supplement of paper PMC12458215.
